Assay: soluble on expression in E. coli; label from the status in PepcDB or PDB records

Sequence	soluble on expression in E. coli
MSPTLQDARLLWDFLGQGRCHVPCELLVVCGSYDLRVCDHACELLERGLAERLLFTGNTGHWTRHLWVEPEAELFARHARARGVSDSLIVIEPRATNFAENIAFARELFPDLRRATFVTKPNSIRRVALTLPVRWPGLEGHVDAPDYAFPDGISNLVGVLGVIDEMVGDLDRIMRYPALGFQVACPIPAQVMDAWERLVARGFDRHLVNPPRLEHHHHHH	soluble
MSLKNNEVAFYAMGGLGEIGKNMYCVQFQDEIIVIDCGVLFPEDELLGVDYVIQNYDYLIENKDKIKGIFITHGHEDHIGGLPFFLQKVNAPIYAGPFAMSLIKGKLEEKHLLRNAELHEINEFDEVHFKKLWVSFFRTTHSIPDTLGVAVHTPQGTIVQTGDFKFDLTPVGNLPGPNLQQMAKLGDDGVLLLTSDSTNAERPEFTKSERWVDIHIRRIFERIKGRIIFASFASNVYRLREASDAAIAQGRKIAVFGRSMENAITAGQELGYLNIPKDSLIDQNEINNYPPEKVLIMCTGSQGEPMAALSRIANGTHRQITIQPEDTVVFSSNPIPGNTTSVNALINKLEESGANVIHGYVNNIHTSGHGGQVDEEFMLRLMKPKFFAPVHGEYRMQKIHTKLAEMTGVPKENSFVLANGDVLALTKDSCRVADHIDSVSDVYIDGRDAGDTVGNPEIRERRLLSEEGVVTAIAVVDLKDYQIVAGPDIVSRGFVYMHESQELIKAANHEVFWAILNTFKNHKHIDQRVLNRTIISRLQKLLYDRTGRRPVIIPMVTILNGEGHHHHHH	soluble
LPELSLEELIRMHDHICFLKSLGYTDYQKHLKKSKVLIVGLGKLGANIAYNLCNVGVGSVILFDRTFISPTEISDIYTKDAIGMKKADYLRKKLTSIFPEIEVQNLPDTINISNYLNDSDFDIIIVNSEHFNIKLLSELNDLLYKISTPYMYAWIEGSRGYIGPLIYPPDTSCFNCYLTWRFFGTFMEDKIKAINNYGSSGYIFPLDKIIGALTVLEVCKAIGSLGTPLFNKIILVEVLPTLTIRYIPILKDPKCNVCEG	not soluble
MSLEHLHELVGSVDVVLSDIWGVVHNGLESFPDACAALKTARDQGRTVVLITNAPRPADSVQRQLRKLDVPDDCYDAIVSSGDLTRIYVAEHPGQSIYWLGPDRDNSIYRGLDAVLTPLEKADYIICTGPFDDETESAEDYREMMGQALERKLTLVCANPDIVVERGDRLIYCAGAIAELYRELGGDVIFYGKPHRPIYDRAMALAREIRGVDTPVQRVLAIGDSVRTDLAGAQGYGIDLLFVTRGIHADAFEGIDRLDTAAVNELFGHPPLALTRELREGHHHHHH	soluble
ADFEVHMLNKGKDGAFVFEPASLKVAPGDTVTFIPTDKGHNVETIKGMIPDGAEAFKSKINENYKVTFTAPGVYGVKCTPHYGMGMVGVVQVGDAPANLEAVKGAKNPKKAQERLDAALAALGN	soluble
MGSDKIHHHHHHAAVNRVGMGSSWRAGVKVGVGVSYQFEPGWIGLKSGLYYANRGYSLGDYPRTTESATYVLKEMMTGGITQHFLQLPVMADFSWKVSKEVRMHLAVGMYAGVSVKNDTNWGSSFTMGYSKEPQALGKYVKSTGLGYSYGYGHSGYDEAENADHPFRDVNSFDWGLTTSFGIEVNNWVMNLGYDLSLGDEGGNYKIDGDNFSLYEVRSVGANYNTMSLTVGYKFKL	not soluble
MGSDKIHHHHHHMSHNIKYRQLKAFRILAESGSFKHAADSLAVTQPSMSIMIRELESDLGVALIDRATRSAELTDAGRDFYQQIKGSLDQLEKAYSYANAAGKAEHGRVRIATLTSLAAEAVTTAIARMHAERPGIQIELMERTYFLALRRREVDLGVGILHEAHADLDFQYLFSDQLVVVTPKGHPLARQRQPLKHLGKYDVVVVSPGPSLEALQELDADCAPPVQVEQPSTAITMVRKGLGVTVTSSSATTGLDMRGLAAVPIPGTTRDVGVITLAQARLSPVASAFLRCLRHVHPAG	not soluble
GMFADNTLTPKEAVRLCALGTIASQPMRYSELAGSVRHFTSRIMGPSLELMGISIELLRYEGLVEAVDDGQGMEDDAMLAISAAGRRELHSLLTARLRPGSDLSKLVVALKMRFLGLMEAEERAHQIDLLIEGVDSELARLADLRGSDGEGGSALAAWLDHDMALLESRLAWLEDFRARL	soluble
PVNTKRSNGTKRVEFPTTKKSMCIGNSTPNEQETFRAKVDEIWFRLTQKTDGTVMRDFLIEKAAEYFKQPEQPKQNAIEVISAIMAPQEEQTKSKADLYKFLAMFGPYETIMLKIASLLLISNNKGHWLTFDPQAEKNANNQRDSISGWFDQNEPNCLILKTPTGIRKIWNKPLIEATGQYLMDENGEKYDSWDKYFEMKPIETYLTAYPTFAPMHHHHHH	soluble
MDLFSQFFQENQKKFLSFAYSYTRNKAAAEDILMEAMVSLWENREKWEKDSNLHALLLTIIKNKSLNYLEHEQVRMKAEEAINTHKQRELDLRISTLEACEPATIFDTEIQRIVYKTLEQLPEQSRHIFILSRYHNTPNKKIAEQLGISIKSVEFHITKTLKLLRLELKDYLISLLF	not soluble
MMGSKMASASRVVQVVKPHTPLIRFPDRRDNPKPNVSEALRSAGLPSHSSVISQHSKGSKSPDLLMYQGPPDTAEIIKTLPQKYRRKLVSQEEMEFIQRGGPE	soluble
MKFTDKTTQADTQRTITKDGFLVVPATISKVGVFDYLATELGLKEDGIKKVARTEKSLFSDETIKSFENATLTVGHLKDGVNAKNWKQLSVGVVRNVKRVGDELTAEAWIYDEQAIKTVQEHGVEQLSCGYDCDIKPSTVQDADFEMSPMIGNHVAIVAKGRCGGSVKLADEDKTIMGKTAKILDAFLGAFGIKLSDEQKKQIEDEEKSGSEEGKEPKGEQPTKPKEKKSEPENKKEDDVEKEELEKSLKAKDEEIQQLKDAQAKRDAEVKQAAVLADAKTAFKEVNFADNATVREIQESAVVAQGIFTKDEAAKLSDEEISGAYQTAKVVVAKLADERKSLGNILLGDAEPKAAPKIDFNKTYNS	not soluble
MGSDKIHHHHHHMRDQQLFLFGGGPPFTPMLCRQFVSCLKQSGPVALLYVPRPGSNWDDYAPIYTDALTANGVTDFFHFPLSARPTSEQLEQLAGSAGIIISGGETERYQQFIVGTPIGTIIQERFQHGVPVAGFSAGALLTPDECRIPVIDQRNGQALVLKGLGLLTDAVISVHYDTWQEETNLSDAFMKTASNFGYGLPERSGIHLKNGQLMQQEGPEVVLLRQKGEYI	not soluble
MNETKVLIEKITEGIQEKKGKNIVIADLTNIDDTICKYFVICQGNSPSQVIAIVDSIKEFTRKGAGTKPSAIDGQRNAEWVAMDFSDVLVHVFLPEARNFYNLEHLWADAKLTTIPDID	soluble
MGSDKIHHHHHHMAAALDGIRVLDLSRVLAGPWASQALADLGAEVIKIERPGAGDDTRSWGPPFLKDEDGRETTDAAYFLAANRGKKSLTVDITKAEGQDLVRALAARSHVVIENFKLGGLAKYGLDWPSLRAVNPALVYCSITGFGQTGPYAPRAGYDAMIQAMSGLMSVTGEPDGVAGGGPMKVGVAVTDILTGLYAAFGILAALRHAEATGEGQHIDLALMDTAVACMANQAANALVGERVPGRLGTAHPNIVPYQAFATQDGHLMLAVGNDGQFARLCAIGQRPDLPLDPRFARNRDRVAHRAALLAEIIPMMASRSTDAWIAALESAGVPCGPINTLDRVFADPQVIARGLRVDGTHAEAGTVPMVRNPLLLSATPPTHTAGPPTLGQHTDGVLSDVLGLTAEDITTLRQKAIV	not soluble
MKKYLNQNVYDALIERLHFLFNDFPIVYISFSGGKDSGLLLNILLDFRDKYYPDREIGVFHQDFEAQYSLTTKYVQETFTSLEGRKKVSLYWVCLPMATRTALSSYEMFWYPWDDKTEDIWVRPMPSQDYVINLENNSITTYRYKMNQEDLAKQFGRWYKQIHGNQKTVCILGNRASESLHRYSGFINKKYGYQKECWITKQFKDVWTASPLYDWSVEDIWHAYYKFSYSYNELYDLFYKAGLKPSQMRVASPFQDYAVDSLNLYRIIDQETWVKLLGRVQGVNFSNIYGRTKAMGYKSIALPKGHSWKSYTQFLLSTLPVRLRNNYVRKFNKSIDFWHKTGGGLAEETINELIEKGYRIARNGISNYTSFKHSRVIFLDQIPDDTDDIVTTKDIPSWKRMCFCILKNDHICRTMGFGLTREQQKIVAFLKEKYKTSLKELESE	not soluble
MLPANEIKGVLAFLREAERLKSVIRSGYTSTGRPESTAEHTWRLCLMAMLLADGLGDIDVARLLKICIVHDLGEALHGDVPAVAQVEGDDRAARERADIETLTQSLDDKRRAELLGLWHDYETGASPEGRLAKGLDKLETILQHTQGLNPADFDYAFNLDYGARHTAVHPLVSAIRAELDNDTRARMALQQASGAPH	not soluble
MNLLVTSSLGVLLHLVVLCQADDHSELLVNTKSGKVMGTRVPVLSSHISAFLGIPFAEPPVGNMRFRRPEPKKPWSGVWNASTYPNNCQQYVDEQFPGFSGSEMWNPNREMSEDCLYLNIWVPSPRPKSTTVMVWIYGGGFYSGSSTLDVYNGKYLAYTEEVVLVSLSYRVGAFGFLALHGSQEAPGNVGLLDQRMALQWVHDNIQFFGGDPKTVTIFGESAGGASVGMHILSPGSRDLFRRAILQSGSPNCPWASVSVAEGRRRAVELGRNLNCNLNSDEELIHCLREKKPQELIDVEWNVLPFDSIFRFSFVPVIDGEFFPTSLESMLNSGNFKKTQILLGVNKDEGSFFLLYGAPGFSKDSESKISREDFMSGVKLSVPHANDLGLDAVTLQYTDWMDDNNGIKNRDGLDDIVGDHNVICPLMHFVNKYTKFGNGTYLYFFNHRASNLVWPEWMGVIHGYEIEFVFGLPLVKELNYTAEEEALSRRIMHYWATFAKTGNPNEPHSQESKWPLFTTKEQKFIDLNTEPMKVHQRLRVQMCVFWNQFLPKLLNATACDGELSSSGTSSSKGIIFYVLFSILYLIF	soluble
MQNIFDPLIIRGKSLIPIVQGGMGVGVSASGLSSAVARENGIGTIASVDLRHLHEDLLAESQINPSEEKYTSLNCTALDREIQKAKSASEGKGLIAVNVMKAVKDHAAYVRQACESGADAVVMGAGLPLDLPEMTEGYHKDVALLPILSESRGINIVLKRWMKKGILPDAIVVEHPAHAAGHLGASTVEGVNDAKFDFKRVIEETFEVFKNLGLEGEKIPLILAGGMANFEKVKTALKNWGASAVQIGTAFAVTEEGDAHLNFKKTLASAETEKVVEFMSVAGLPARGIRTKFLDSYIRREGKLQANAKADPRRCTQGLNCLTSCGLRDGLSKAGQFCIDIQLAAAFRGEVDKGLFFRGKDQLPFGNAIRTVRETIQYLLTGSEPVATLGR	not soluble
MAHHHHHHMSTLRHSHEPSPYVQKGEDLSGQKLTPTIKSYRNMEFLNSYSGRMIRILCEFEEPKQRLQQHFIRTTVLFFGSARSMTQAQYDSTVQDIHSKLAAATDDSTKASLQNKLACLKKTQWMCKWVDVVENLARMVAEFSQKEQDMIIRSFRHIPDYFRLTPEDGSESLDDLQKRFHDLVVTTGGGPGFMEAANHGAESVPGAVTMGMGISLPFENGLNPHVTKGLAFEFHYFFTRKFWMMYSCRAIVIAPGGFGTLDEMFELLTLKQTKKIPSLPVVLLGKEFWQTVVNWQALANYGVISQEEIDSLLFTDSAEEAVEHIKDFYHRLASDSPSTE	not soluble
MGSDKIHHHHHHMRRCPLCTSEETAPFYQDRKRCIYRCKRCMLLFADANSHLPPSAEVKRYRSANSKDKPLQQFLSSLITQCEQQVQGPLLGLNFGRLLNPQAIDAIKARGHQLNQYDPHFAPDHTLLRLEYDFICCYRVFEHFRFPGKEWQLLCSLLKPGGWMAISTQLLTELQGFPKWHHKNNLTHVSFYQQATFQYLASQAEFRLLFASKDLILVQKPTGSGITRDPSSLI	not soluble
